Assay [1] addresses huPD-L1-Fc (R&D Systems) (human) (UniProt Q9NZQ7). Put plainly: Biacore, ligand rhPD-L1-Fc, Affimer as analyte. (SPR reads the build-up and loss of mass on a sensor chip optically.)
Assay [2] has the same target. Put plainly: competition ELISA: hu PD-1-Fc coated, huPD-L1-Fc preincubated with the antibody. (In an ELISA, binding on a coated surface is turned into a signal by an enzyme label.)
The target is the same in assay [3]. Put plainly: competition ELISA: hu CD80-Fc coated, 1.6 nM huPD-L1-Fc preincubated with the antibody.

From patent US20210163599A1 come the findings set out here.

Sequence of huPD-L1-Fc (R&D Systems) (human) (Q9NZQ7 19-239 limits assumed): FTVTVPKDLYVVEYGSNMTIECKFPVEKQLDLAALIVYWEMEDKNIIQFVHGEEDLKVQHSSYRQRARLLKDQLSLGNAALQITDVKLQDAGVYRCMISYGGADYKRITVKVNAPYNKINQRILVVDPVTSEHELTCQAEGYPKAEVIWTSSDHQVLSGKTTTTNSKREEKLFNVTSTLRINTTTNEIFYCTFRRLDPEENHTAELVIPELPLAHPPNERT

B1: AVA04-251 BH (designed binder, from a related filing)
chain: MIPRGLSEAKPATPEIQEIVDKVKPQLEEKTNETYGKLEAVQYKTQVLAREGRQDWVLSTNYYIKVRAGDNKYMHLKVFNGPWVPFPHQQLADRVLTGYQVDKNKDDELTGFAEAAAKEAAAKEAAAKEAAAKEAAAKEAAAKMIPRGLSEAKPATPEIQEIVDKVKPQLEEKTNETYGKLEAVQYKTQVLAREGRQDWVLSTNYYIKVRAGDNKYMHLKVFNGPWVPFPHQQLADRVLTGYQVDKNKDDELTGFHHHHHH
Usually koff stands for the rate constant with which the complex falls apart. A word on the kon: it is the second-order rate constant of association. Lower therefore signals slower complex formation. In assay [1], B1 had a koff of 0.00129 s⁻¹ and a kon of 752000 M⁻¹ s⁻¹.

B2: mAb anti huPD-L1 29E.2A3 (Biolegend) (antibody, from another filing, V domains shown)
VH: EVQLQQSGPELVKPGASVKMSCKASGYTFTSYVMHWVKQKPGQGLEWIGYVNPFNDGTKYNEMFKGKATLTSDKSSSTAYMELSSLTSEDSAVYYCARQAWGYPWGQGTLVTVSA
VL: DIVLTQSPASLAVSLGQRATISCRATESVEYYGTSLVQWYQQKPGQPPKLLIYAASSVDSGVPARFSGSGSGTDFSLTIHPVEEDDIAMYFCQQSRRVPYTFGGGTKLEIK
For orientation: IC50 means the point on the concentration scale where inhibition reaches its midpoint. High values mean lower potency, low ones higher potency. For B2, the IC50 was 0.18 nM in assay [2] and 0.31 nM in assay [3].
